In test [1] the target is CD40 on mouse splenic B cells (mouse) (UniProt P27512). The test is described as follows: cell-based or functional assay.
Test [2] concerns the target recombinant murine CD40L (M112-L260) with N-terminal HA tag (murine). The test is described as follows: loading of HA-tagged CD40L on anti-HA antibody microbeads; protein in the supernatant (A280) measured before and after incubation.

UniProt P27512, sequence (P27512 20-289): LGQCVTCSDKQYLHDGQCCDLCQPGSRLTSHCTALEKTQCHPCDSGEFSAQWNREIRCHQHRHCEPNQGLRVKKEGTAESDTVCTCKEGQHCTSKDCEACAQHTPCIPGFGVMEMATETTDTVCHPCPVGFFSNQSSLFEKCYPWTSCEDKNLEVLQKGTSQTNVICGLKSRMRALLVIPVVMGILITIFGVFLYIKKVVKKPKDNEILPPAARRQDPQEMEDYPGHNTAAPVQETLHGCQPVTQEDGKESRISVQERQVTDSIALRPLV

Substance “anti-CD40 antibody (clone 1C10, eBioscience)” yielded a cell viability on Day 6 of B cells activated by αCD40 in test [1] of 2 to 5%.

In the case of “anti-HA peptide antibody covalently attached to superparamagnetic microbeads (Pierce)”, the maximum surface density of CD40L on anti-HA microbeads (molecules µm^-2) in test [2] came to 27000.
